Experimental data taken from paper PMC6281676 (Scientific Reports, 2018).

Experiments:
[1] = Appearance of mixed solution of peptide drug and penetratin; assay type: physicochemical; details: peptide drug 2.5 mg/mL plus L- or D-penetratin 2.0 mM in PBS pH 6.0 with 0.001% methylcellulose; visual
[2] = 15 min after 30th intranasal administration of exendin-4 1 mg/mL, L-penetratin 2 mM and insulin 8 IU/mL (1 IU/kg)
Procedure: (§1) Every morning at 10 AM, mice were anesthetized by an i.p. injection of sodium pentobarbital (50 mg/kg), and restrained in a supine position. […] The untreated control SAMP8 and SAMR1 received intranasal administration of only the vehicle (PBS pH 6.0). After each administration, mice were kept in a supine position for 15 min and then returned to their cages.

[3] = up to 60 min after 29th intranasal administration of exendin-4 and insulin with L-penetratin; tail vein, glucose meter
Procedure: as §1
Blood was obtained from the tail vein before and 15, 30, and 60 min after administration, and the blood glucose concentration was measured using a glucose meter (One Touch Ultra View, Johnson & Johnson K.K., Tokyo, Japan).

[4] = tested on: hippocampal neuronal cells; assay: Immunohistological staining of brain specimens with anti-NeuN antibody (neuronal cell counts); assay type: in vivo, SAMP8 mice; details: after 30th intranasal administration of exendin-4 ± L-penetratin ± insulin; 38 weeks of age; n = 4–8
Procedure: At 15 min after administration, blood samples were taken from the left jugular vein. Immediately after blood withdrawal, the abdominal cavity was opened, and the intravascular content in the brain was flushed by perfusion of ice-cold PBS (pH 7.4) into the left ventricle of the heart at 5.5 mL/min for 5 min using a peristaltic pump (ATTO Corp.). Right afterwards, the brain was fixed by perfusion of ice-cold 4% PFA into the brain at 5.5 mL/min for 10 min. Subsequently, the whole brain was carefully isolated and washed with ice-cold PBS (pH 7.4) and weighed after removal of the water content.
The right side of the brain obtained as described above was immersed in 4% PFA for 24 h and then moved to ice-cold PBS (pH 7.4) and stored at 4 °C. After removing the PBS, the brain was trimmed coronally to obtain 3-mm slices at the position of Bregma −1.5 mm. […]
A thin slice at Bregma −2.0 mm was obtained and mounted on a glass slide, deparaffinized, and immersed in citrate buffer for 40 min in a water bath at 98 °C to activate the antigen. […] The stained brain tissue was observed by microscopy (Olympus BX51 and DP71), and the NeuN-positive cell numbers in the hippocampus were analyzed using WinROOF (Mitani Corp., Tokyo, Japan). […]

Row | Substance | appearance of solution after mixing [1] | insulin level in plasma ([2]; ELISA, mean ± SEM) | brain concentration of insulin ([2]; human insulin ultrasensitive ELISA) | blood glucose level [3] | NeuN-positive hippocampal neuronal cell counts [4]
1 | HAEGTFTSDVSSYLEGQAAKEFIAWLVKGR-NH2 [GLP-1, glucagon-like peptide-1, incretin peptide, synthesized by Sigma-Genosys] | clear |  |  |  | 
2 | insulin: Recombinant human insulin (27.5 IU/mg), Wako |  | 41.1 ± 11.8 μU/mL | less than the lower detection limit | > 70 mg/dL | no proliferation effect
